Measured values as given in the supplement of paper PMC10126150.
± gives the standard deviation of the averaged measurements.

Test system: ATP
Test: switch fluorescence ratio, 500 uM ATP over buffer (Cy3 cluster intensity, sum of 5 cycles each) (fold (ratio)); higher = stronger signal-on switching upon ATP binding; sequences stand for … in TCGTCGGCAGCGTCAGATGTGTATAAGAGACAGTTTTTTTTTTTTTTTTTTTTTTTTT…TC
Details: aptamer strand: ATP DNA aptamer (quencher-CACCTGGGGGAGTATTGCGGAGGAAGG + anchor), 100 nM annealed; ATP concentration: 500 uM
Procedure, shortened: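 Clusters carrying Cy3-labelled switching strands on a modified Illumina MiSeq flow-cell were annealed to 100 nM quencher-labelled ATP aptamer and imaged in selection buffer. They were imaged again after 15 min with 500 uM ATP at 22 °C, over five buffer/ATP cycles with NaOH stripping and re-annealing in between. For each cluster, the fluorescence ratio is the summed Cy3 intensity of the target cycles divided by that of the buffer cycles, averaged per switch-domain sequence. Clusters outside 100-1000 RFU were left out.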
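Further: ATP exposure 15 min at 22 °C before imaging.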

Sequence	switch fluorescence ratio
CGGGGTGAGG	0.997 ± 0.014
CGGGGTGCTT	1.01 ± 0.012
CGGGGTGGTA	0.9873 ± 0.0069
CGGGGTTGGG	1.01 ± 0.047
CGGGGTTTTG	1.014 ± 0.0068
CGGGTAAAGG	0.9441 ± 0.0076
CGGGTACTAG	1.02 ± 0.044
CGGGTAGCT	1.01 ± 0.03
CGGGTAGTTA	0.99 ± 0.029
CGGGTATGCC	0.96 ± 0.0098
CGGGTCCAGC	1.01 ± 0.033
CGGGTCGGCA	1.03 ± 0.017
CGGGTCGTGC	1.03 ± 0.013
CGGGTGATTC	1.04 ± 0.021
CGGGTGCACT	0.98 ± 0.027
CGGGTGTAGT	1.03 ± 0.024
CGGGTGTATC	1.03 ± 0.046
CGGGTGTGGA	1.05 ± 0.04
CGGGTGTTCG	1.02 ± 0.075
CGGGTTAAGT	1.03 ± 0.11
CGGGTTAAT	1 ± 0.041
CGGGTTATAA	1.04 ± 0.022
CGGGTTATGG	0.981 ± 0.049
CGGGTTCTAT	0.977 ± 0.036
CGGGTTGCCC	1 ± 0.012

Sequence	switch fluorescence ratio
CGGGTTGCGG	0.9508 ± 0.009
CGGGTTTAAC	0.998 ± 0.021
CGGGTTTGAC	0.984 ± 0.047
CGGGTTTTAT	1.01 ± 0.028
CGGTAAATAA	1.01 ± 0.021
CGGTAAGGCG	0.947 ± 0.11
CGGTAATCGG	0.988 ± 0.01
CGGTAATGTG	1.03 ± 0.035
CGGTAATTTT	0.975 ± 0.021
CGGTACCATC	1.02 ± 0.013
CGGTAGTGCG	0.975 ± 0.021
CGGTCAGGGT	0.995 ± 0.015
CGGTCATTTT	0.998 ± 0.033
CGGTCCACGA	1.022 ± 0.0017
CGGTCGAGGT	0.993 ± 0.038
CGGTCGGGGA	1 ± 0.043
CGGTCGGTGT	0.982 ± 0.022
CGGTCTAATT	0.9989 ± 0.0027
CGGTCTATGC	1.12 ± 0.035
CGGTCTCCGG	1.03 ± 0.012
CGGTCTGTTC	0.994 ± 0.052
CGGTGAAATG	0.975 ± 0.017
CGGTGAGGCT	0.984 ± 0.017
CGGTGAGTGT	0.9608 ± 0.0063
CGGTGATCGG	0.996 ± 0.013

Sequence	switch fluorescence ratio
CGGTGCCGGT	0.9841 ± 0.0091
CGGTGCGGGT	0.992 ± 0.016
CGGTGCGGTG	0.981 ± 0.013
CGGTGGAATC	1.36 ± 0.45
CGGTGGCGTC	1.01 ± 0.048
CGGTGGGGAT	1.02 ± 0.046
CGGTGGGGCG	1 ± 0.034
CGGTGGGGT	1.035 ± 0.0064
CGGTGGGTCT	1.006 ± 0.0015
CGGTGGGTTA	0.985 ± 0.025
CGGTGGTGTG	0.963 ± 0.048
CGGTGGTTGA	1.01 ± 0.053
CGGTGTAAAA	0.961 ± 0.011
CGGTGTCAGC	1.012 ± 0.0059
CGGTTAAAAT	0.989 ± 0.023
CGGTTAGCGG	0.983 ± 0.044
CGGTTAGGCT	1.06 ± 0.012
CGGTTATCGC	1.03 ± 0.052
CGGTTATGGT	0.99 ± 0.022
CGGTTCGGGC	0.983 ± 0.023
CGGTTCTGTA	1.01 ± 0.027
CGGTTCTTGA	0.995 ± 0.038
CGGTTGACGT	1.01 ± 0.013
CGGTTGAGTA	0.9982 ± 0.0043
CGGTTGGCGT	1.04 ± 0.088

Sequence	switch fluorescence ratio
CGGTTGGGGT	0.989 ± 0.0088
CGGTTGTTGA	1.01 ± 0.031
CGGTTGTTGT	1.01 ± 0.021
CGGTTTAAGT	0.993 ± 0.028
CGGTTTAGGA	0.988 ± 0.028
CGGTTTCCGC	1.04 ± 0.022
CGGTTTCTGT	0.9814 ± 0.0092
CGGTTTGGTA	0.976 ± 0.014
CGGTTTGTTA	0.985 ± 0.037
CGGTTTGTTT	0.987 ± 0.04
CGGTTTTATA	0.9619 ± 0.0088
CGTAAAAAAT	0.986 ± 0.068
CGTAACATGG	1.022 ± 0.0099
CGTAACCCGT	0.98 ± 0.033
CGTAACCTTA	1.05 ± 0.15
CGTAACTAGG	1.02 ± 0.03
CGTAACTGTG	1.07 ± 0.043
CGTAAGCGTA	1.04 ± 0.032
CGTAAGGGGG	1.02 ± 0.035
CGTAATTATG	1.01 ± 0.03
CGTAATTGCC	1.002 ± 0.008
CGTAATTTGA	1.02 ± 0.047
CGTACAATGG	1.28 ± 0.088
CGTACAGGGG	1.207 ± 0.004
CGTACGGGTG	1 ± 0.014

Sequence	switch fluorescence ratio
CGTACGGTAA	1.09 ± 0.042
CGTACGTGCA	1.02 ± 0.032
CGTACTGTAA	1.18 ± 0.03
CGTAGAGCGA	1.03 ± 0.015
CGTAGCGGTA	1.53 ± 0.098
CGTAGCTTAG	1.25 ± 0.13
CGTAGGAAGA	1.02 ± 0.048
CGTAGGAATT	1.07 ± 0.015
CGTAGGAGGG	0.997 ± 0.04
CGTAGGGGTC	0.959 ± 0.042
CGTAGGGTGT	1 ± 0.022
CGTAGGGTTT	0.976 ± 0.055
CGTAGTGAGG	0.994 ± 0.03
CGTAGTGGGG	0.993 ± 0.044
CGTAGTTTGT	1.03 ± 0.076
CGTATAATTT	0.97555 ± 0.00021
CGTATAGCGG	1.02 ± 0.076
CGTATAGTTT	0.9865 ± 0.0096
CGTATCAAAC	1.23 ± 0.049
CGTATCGGGG	0.993 ± 0.054
CGTATCGTGG	1.03 ± 0.031
CGTATCTAGG	0.98 ± 0.021
CGTATCTATC	1.007 ± 0.0065
CGTATGAATA	0.984 ± 0.011
CGTATGGGGG	1.07 ± 0.08

Sequence	switch fluorescence ratio
CGTATGGTTC	0.996 ± 0.031
CGTATTACAC	1.045 ± 0.0033
CGTATTGGGC	0.9577 ± 0.0065
CGTCAAACAT	1.081 ± 0.0084
CGTCAAATAT	1.13 ± 0.041
CGTCAACAGG	1.28 ± 0.062
CGTCACAGTG	1.04 ± 0.019
CGTCAGCGAA	1.18 ± 0.039
CGTCAGTATG	1 ± 0.033
CGTCATCGCA	1.2 ± 0.022
CGTCATGATG	1 ± 0.029
CGTCATTAAG	0.9994 ± 0.0054
CGTCCCTAGC	1.61 ± 0.06
CGTCCGAAGT	2.03 ± 0.18
CGTCCGGTG	1.78 ± 0.65
CGTCGAATAT	1.016 ± 0.0016
CGTCGGAATG	1.091 ± 0.0045
CGTCGGGGAA	1.02 ± 0.027
CGTCGGGGTT	0.973 ± 0.032
CGTCGGTTTG	0.993 ± 0.019
CGTCGTGGAG	1.01 ± 0.036
CGTCTAAGGT	0.98 ± 0.044
CGTCTAGACT	1.018 ± 0.0036
CGTCTATTGT	0.98 ± 0.046
CGTCTGGTGG	0.991 ± 0.05

Sequence	switch fluorescence ratio
CGTCTTACGT	1.03 ± 0.051
CGTCTTGTGG	1 ± 0.022
CGTGACAAGA	0.986 ± 0.056
CGTGACAGGG	1.04 ± 0.058
CGTGACCGGG	0.996 ± 0.016
CGTGACTAAA	0.9893 ± 0.0079
CGTGAGAAAG	1 ± 0.018
CGTGAGATGC	1.01 ± 0.038
CGTGAGGGAG	0.994 ± 0.029
CGTGAGGGTA	1.02 ± 0.028
CGTGAGGGTG	1.01 ± 0.079
CGTGATATAG	1.02 ± 0.026
CGTGCAAAAC	1.82 ± 0.88
CGTGCAAAGA	1.77 ± 1.1
CGTGCGAAGG	1.03 ± 0.049
CGTGCGGCTG	1.028 ± 0.0066
CGTGCTGCAA	4.91 ± 1.7
CGTGCTGGAA	0.975 ± 0.045
CGTGGAAGGA	0.997 ± 0.038
CGTGGCCGCG	0.959 ± 0.012
CGTGGCGGTA	1.04 ± 0.031
CGTGGGACTG	1.02 ± 0.017
CGTGGGAGGT	0.987 ± 0.036
CGTGGGCAAG	0.996 ± 0.021
CGTGGGCAGT	0.956 ± 0.041

Sequence	switch fluorescence ratio
CGTGGGCATT	1.01 ± 0.034
CGTGGGCTGT	0.9817 ± 0.0074
CGTGGGGAGT	1 ± 0.012
CGTGGGGGCG	1.01 ± 0.03
CGTGGGGGGA	1.03 ± 0.013
CGTGGGGGGG	1.02 ± 0.052
CGTGGGTAAG	1.02 ± 0.039
CGTGGGTGGG	1.01 ± 0.036
CGTGGGTTCC	0.989 ± 0.038
CGTGGTATTT	0.982 ± 0.016
CGTGGTGCTC	1.07 ± 0.043
CGTGGTTGCA	0.989 ± 0.018
CGTGGTTGCG	0.962 ± 0.055
CGTGTAGTTG	1.02 ± 0.026
CGTGTATATC	1.07 ± 0.028
CGTGTCATTA	1.01 ± 0.031
CGTGTCCTCG	1.04 ± 0.088
CGTGTGATTT	0.988 ± 0.025
CGTGTGGTAT	1.01 ± 0.042
CGTGTGGTCG	0.9325 ± 0.0038
CGTGTTAATG	0.989 ± 0.037
CGTGTTACGG	0.994 ± 0.046
CGTGTTCGGA	0.977 ± 0.016
CGTGTTGTTT	1.003 ± 0.01
CGTGTTTATA	0.99 ± 0.042
